From publication PMC9489729, “The AAA+ ATPase RavA and its binding partner ViaA modulate E. coli aminoglycoside sensitivity through interaction with the inner membrane” (Nature Communications, 2022)
One block for each binder: values may come before it.

Tests used:
[1] = molecular target: T1, C-terminally His-tagged RavA (E. coli, UniProt P31473 1-498); assay: BLI; biotinylated ViaA construct immobilised on streptavidin biosensors, RavA in solution with 1 mM ADP (pre-incubated 10 min); HBS kinetics buffer, 293 K; 1:1 model; details: both partners purified
T1 construct: RavA, MoxR AAA+ ATPase, E. coli K-12 MG1655; It cites earlier work for RavA being a hexamer with ADP or ATP and partly monomeric without nucleotide; also called apo-RavA; not shown: His tag, C-terminal, kept
T1 sequence (P31473 whole entry): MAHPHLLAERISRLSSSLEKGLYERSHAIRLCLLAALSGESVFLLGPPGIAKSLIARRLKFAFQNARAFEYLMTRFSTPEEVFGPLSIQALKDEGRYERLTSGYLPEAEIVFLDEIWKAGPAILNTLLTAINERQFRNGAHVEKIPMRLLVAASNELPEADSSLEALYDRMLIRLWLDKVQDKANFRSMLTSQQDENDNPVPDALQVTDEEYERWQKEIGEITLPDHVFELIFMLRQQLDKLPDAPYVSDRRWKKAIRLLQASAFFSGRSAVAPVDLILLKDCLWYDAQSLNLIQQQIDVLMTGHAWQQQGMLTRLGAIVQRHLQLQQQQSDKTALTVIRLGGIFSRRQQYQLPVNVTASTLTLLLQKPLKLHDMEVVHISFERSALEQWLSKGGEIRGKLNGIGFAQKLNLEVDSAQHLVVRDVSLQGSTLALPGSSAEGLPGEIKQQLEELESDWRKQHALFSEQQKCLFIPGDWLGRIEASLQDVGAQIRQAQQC

[2] = molecular target: T1, C-terminally His-tagged RavA; assay: BLI; biotinylated ViaA construct immobilised on streptavidin biosensors, ligand in solution, no nucleotide added; HBS kinetics buffer (25 mM HEPES pH 7.5, 300 mM NaCl, 10 mM MgCl2, 10 % glycerol, 0.1% BSA, 0.02% Tween-20), 293 K, Octet RED96; 1:1 model; details: both partners purified
[3] = molecular target: the molecule itself; assay: SAXS; AviTag-ViaA-His at 3 mg/mL, 25 mM HEPES pH 7.5, 300 mM NaCl, 10 mM MgCl2, 10 % glycerol, 20 °C; MW by SAXSMoW and ScÅtter
[4] = molecular target: the molecule itself; assay: SEC-MALS; Superdex 200 increase 10/300 GL, 4 °C, 25 mM HEPES pH 7.5, 300 mM NaCl, 10 mM MgCl2, 10 % glycerol; AviTag-ViaA-His 80 µL at 3 mg/mL, His-NTV-AviTag 80 µL at 2 mg/mL
[5] = molecular target: T1, C-terminally His-tagged RavA; assay: BLI; Supplementary Fig. 1: biotinylated His-NTV-AviTag or ViaA immobilised on streptavidin biosensors, RavA or RavAΔLARA in solution; HBS kinetics buffer, 293 K; the methods say 1 mM ADP was added with RavA or RavAΔLARA; details: both partners purified

Kd [1]: ~2.2 µM
Kd [2]: 11 µM
B1: His-ViaA-AviTag (natural protein, E. coli, UniProt P0ADN0 1-483, looked up)
chain: MLTLDTLNVMLAVSEEGLIEEMIIALLASPQLAVFFEKFPRLKAAITDDVPRWREALRSRLKDARVPPELTEEVMCYQQSQLLSTPQFIVQLPQILDLLHRLNSPWAEQARQLVDANSTITSALHTLFLQRWRLSLIVQATTLNQQLLEEEREQLLSEVQERMTLSGQLEPILADNNTAAGRLWDMSAGQLKRGDYQLIVKYGEFLNEQPELKRLAEQLGRSREAKSIPRNDAQMETFRTMVREPATVPEQVDGLQQSDDILRLLPPELATLGITELEYEFYRRLVEKQLLTYRLHGESWREKVIERPVVHKDYDEQPRGPFIVCVDTSGSMGGFNEQCAKAFCLALMRIALAENRRCYIMLFSTEIVRYELSGPQGIEQAIRFLSQQFRGGTDLASCFRAIMERLQSREWFDADAVVISDFIAQRLPDDVTSKVKELQRVHQHRFHAVAMSAHGKPGIMRIFDHIWRFDTGMRSRLLRRWRR
modifications: biotinylated for the BLI binding studies (50 μM D-biotin added to the LB medium during expression)
notes: ViaA, E. coli, residues 1-483, cloned in the p11-Toronto1 vector; also called C-terminally AviTagged ViaA; source: E. coli BL21 (DE3), purified (NiNTA IMAC, desalting, SEC); not shown: His6, N-terminal, kept

Kd [1]: ~2.2 µM
Kd [2]: 18.9 µM
B2: AviTag-ViaA-His (natural protein, E. coli, UniProt P0ADN0 1-483, looked up)
chain: B1 chain
modifications: biotinylated for the BLI binding studies (50 μM D-biotin added to the LB medium during expression)
notes: ViaA, E. coli K-12 MG1655, VWA domain protein, residues 1-483 (NTV 1-319, CTV/VWA domain 320-483), cloned in pET22b; Dimer by SEC-MALLS and SAXS; Theoretical MW of the construct is 60.4 kDa; also called AVI-ViaA-HIS; N-terminally AviTagged ViaA; source: E. coli BL21 (DE3), purified (NiNTA IMAC, desalting, SEC); not shown: AviTag, N-terminal, kept; His tag, C-terminal, kept
stoichiometry N [3]: 2
stoichiometry N [4]: ~2

binding result [5]: binds
B3: His-NTV-AviTag (domain or fragment, E. coli, UniProt P0ADN0 1-319, looked up)
chain: MLTLDTLNVMLAVSEEGLIEEMIIALLASPQLAVFFEKFPRLKAAITDDVPRWREALRSRLKDARVPPELTEEVMCYQQSQLLSTPQFIVQLPQILDLLHRLNSPWAEQARQLVDANSTITSALHTLFLQRWRLSLIVQATTLNQQLLEEEREQLLSEVQERMTLSGQLEPILADNNTAAGRLWDMSAGQLKRGDYQLIVKYGEFLNEQPELKRLAEQLGRSREAKSIPRNDAQMETFRTMVREPATVPEQVDGLQQSDDILRLLPPELATLGITELEYEFYRRLVEKQLLTYRLHGESWREKVIERPVVHKDYDEQPR
modifications: biotinylated for the BLI binding studies (50 μM D-biotin added to the LB medium during expression)
notes: ViaA, E. coli, N-terminal domain (NTV), residues 1-319; also called N-Terminal domain of ViaA; source: E. coli, expressed and purified as the ViaA constructs (NiNTA IMAC, desalting, SEC)
